# Reference: article PMC12747378, “FtsZ phosphorylation modulates tail-core binding to tune cell division in Bacillus subtilis” (PLOS One, 2025)
# Positions count from the first letter of the chain named. Names may count otherwise. “And” between values parts separate entries of the source, which are not always exact repeats. Equal values may be shown once. Read-outs that look alike come from different tables or passages of the source.
# T1: FtsZ core (residues 1-315), wild type (Bacillus subtilis, UniProt P17865 1-315)
# T1 construct: FtsZ of Bacillus subtilis, globular core, residues 1-315; The plasmid paragraph names 'full-length B. subtilis FtsZ and variants' in pET-28a (His6, TEV site); also called FtsZ Core WT; tailless core; source: E. coli One Shot BL21 Star (DE3), purified (TALON resin, eluted with AcTEV protease); not shown: His6, N-terminal, cleaved
# T1 sequence (looked up): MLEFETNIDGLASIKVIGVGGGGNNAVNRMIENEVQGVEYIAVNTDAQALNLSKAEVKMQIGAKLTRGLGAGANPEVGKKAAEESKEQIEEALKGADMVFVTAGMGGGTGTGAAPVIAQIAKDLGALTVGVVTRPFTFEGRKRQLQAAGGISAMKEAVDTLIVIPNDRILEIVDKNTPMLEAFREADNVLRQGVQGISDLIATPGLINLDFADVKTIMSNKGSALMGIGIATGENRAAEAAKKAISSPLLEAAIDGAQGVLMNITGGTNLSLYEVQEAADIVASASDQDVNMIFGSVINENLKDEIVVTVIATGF
# T2: FtsZ core (residues 1-315) (Bacillus subtilis, UniProt P17865 1-315)
# T2 construct: FtsZ, Bacillus subtilis, globular core, residues 1-315; The printed purification is TALON resin with elution by AcTEV protease; also called FtsZ globular core; tailless core; source: E. coli BL21 Star (DE3), purified
# T2 sequence (looked up): T1 sequence (looked up)
# T3: FtsZ core (residues 1-315) D210A/D213A (Bacillus subtilis, UniProt P17865 1-315, D210A | D213A)
# T3 construct: FtsZ, Bacillus subtilis, globular core, residues 1-315, D210A/D213A; see S1 Appendix; also called acidic patch mutant core; source: E. coli BL21 Star (DE3), purified
# T3 sequence (looked up): T1 sequence (looked up) with D210A, D213A
# T4: FtsZ core (residues 1-315) M292H/I293W/F294K (Bacillus subtilis, UniProt P17865 1-315, M292H | I293W | F294K)
# T4 construct: FtsZ of Bacillus subtilis, globular core, residues 1-315, M292H/I293W/F294K; Vector and tag as for 'FtsZ and variants'; also called FtsZ Core HWK; MIF pocket triple mutant; source: E. coli One Shot BL21 Star (DE3), purified (TALON resin, eluted with AcTEV protease); not shown: His6, N-terminal, cleaved
# T4 sequence (looked up): T1 sequence (looked up) with M292H, I293W, F294K
# T5: FtsZ core (residues 1-315) D210A/D213A (Bacillus subtilis, UniProt P17865 1-315, D210A | D213A)
# T5 construct: FtsZ of Bacillus subtilis, globular core, residues 1-315, D210A/D213A; The sheet's label 'AA' is tied to D210A/D213A by the mean Kd (500.6 nM); Vector and tag as for 'FtsZ and variants'; also called FtsZ Core AA; acidic patch mutant; source: E. coli One Shot BL21 Star (DE3), purified (TALON resin, eluted with AcTEV protease); not shown: His6, N-terminal, cleaved
# T5 sequence (looked up): T1 sequence (looked up) with D210A, D213A
# B1: MinCN, the 92aa N-terminal domain of MinC (domain or fragment, Bacillus subtilis, UniProt Q01463 1-92, looked up)
# chain: MKTKKQQYVTIKGTKNGLTLHLDDACSFDELLDGLQNMLSIEQYTDGKGQKISVHVKLGNRFLYKEQEEQLTELIASKKDLFVHSIDSEVIT
# notes: MinC, Bacillus subtilis, N-terminal domain, 92 aa; amplified from B. subtilis genomic DNA; Cloned in pGEX-6P-1 with a PreScission site; cleavage of GST not described; source: E. coli BL21 Star (DE3), purified
# B2: Full-length FtsZ (wild type) (natural protein, Bacillus subtilis, UniProt P17865 1-382, looked up)
# chain: MLEFETNIDGLASIKVIGVGGGGNNAVNRMIENEVQGVEYIAVNTDAQALNLSKAEVKMQIGAKLTRGLGAGANPEVGKKAAEESKEQIEEALKGADMVFVTAGMGGGTGTGAAPVIAQIAKDLGALTVGVVTRPFTFEGRKRQLQAAGGISAMKEAVDTLIVIPNDRILEIVDKNTPMLEAFREADNVLRQGVQGISDLIATPGLINLDFADVKTIMSNKGSALMGIGIATGENRAAEAAKKAISSPLLEAAIDGAQGVLMNITGGTNLSLYEVQEAADIVASASDQDVNMIFGSVINENLKDEIVVTVIATGFIEQEKDVTKPQRPSLNQSIKTHNQSVPKREPKREEPQQQNTVSRHTSQPADDTLDIPTFLRNRNKRG
# B3: Full-length FtsZ S333E (natural protein, Bacillus subtilis, UniProt P17865 1-382, looked up)
# chain: B2 chain with S333E
# B4: Full-length FtsZ S333A (natural protein, Bacillus subtilis, UniProt P17865 1-382, looked up)
# chain: B2 chain with S333A
# B5: FtsZ tail (residues 316-382) (domain or fragment, Bacillus subtilis, UniProt P17865 316-382, looked up)
# chain: IEQEKDVTKPQRPSLNQSIKTHNQSVPKREPKREEPQQQNTVSRHTSQPADDTLDIPTFLRNRNKRG
# notes: FtsZ, Bacillus subtilis, C-terminal tail, residues 316-382 (67 aa); Cloned in pGEX-6P-3 with a PreScission site; also called C-terminal tail; CTT; source: E. coli BL21 Star (DE3), purified; 15N-labelled in M9 minimal medium for NMR
# B6: FtsZ tail (residues 316-382), wild type (domain or fragment, Bacillus subtilis, UniProt P17865 316-382, looked up)
# chain: B5 chain
# notes: FtsZ of Bacillus subtilis, C-terminal tail, residues 316-382; Cloned into pGEX-6P-3 with a PreScission site; also called FtsZ Tail WT; C-terminal tail; source: E. coli One Shot BL21 Star (DE3), purified
# B7: FtsZ tail (residues 316-382) S333E (domain or fragment, Bacillus subtilis, UniProt P17865 316-382, looked up)
# chain: B5 chain with S18E
# notes: FtsZ, Bacillus subtilis, C-terminal tail, residues 316-382, S333E; pGEX-6P-3 with PreScission site; cleavage of GST not described; also called S333E tail variant; source: E. coli BL21 Star (DE3), purified
# B8: FtsZ tail (residues 316-382) I334E (domain or fragment, Bacillus subtilis, UniProt P17865 316-382, looked up)
# chain: B5 chain with I19E
# notes: FtsZ, Bacillus subtilis, C-terminal tail, residues 316-382, I334E; pGEX-6P-3 with PreScission site; cleavage of GST not described; also called I334E tail mutant; source: E. coli BL21 Star (DE3), purified
# B9: FtsZ tail (residues 316-382) S333A (domain or fragment, Bacillus subtilis, UniProt P17865 316-382, looked up)
# chain: B5 chain with S18A
# notes: FtsZ, Bacillus subtilis, C-terminal tail, residues 316-382, S333A; pGEX-6P-3 with PreScission site; cleavage of GST not described; also called S333A tail variant; source: E. coli BL21 Star (DE3), purified
# B10: FtsZ tail (residues 316-382) K335A/H337A (domain or fragment, Bacillus subtilis, UniProt P17865 316-382, looked up)
# chain: B5 chain with K20A, H22A
# notes: FtsZ, Bacillus subtilis, C-terminal tail, residues 316-382, K335A/H337A; pGEX-6P-3 with PreScission site; cleavage of GST not described; also called K335A/H337A tail double mutant; source: E. coli BL21 Star (DE3), purified
# What was measured:
# [1] = molecular target: T1, FtsZ core (residues 1-315), wild type; assay: ITC; 5 µM full-length FtsZ or FtsZ core in the cell, 50 µM FtsZ tail or MinCN in the syringe; TKEG buffer (50 mM Tris pH 8, 50 mM KCl, 1 mM EDTA, 5% glycerol), 25°C; 20 injections of 2 µL; each replicate fitted
# [2] = molecular target: T2, FtsZ core (residues 1-315); assay: ITC; full-length FtsZ or FtsZ core (5 µM) in the cell, FtsZ tail or MinCN (50 µM) in the syringe; TKEG buffer (50 mM Tris pH 8, 50 mM KCl, 1 mM EDTA, 5% glycerol), 25°C; one-site model; conditions: both partners purified
# [3] = molecular target: B2; assay: as above; conditions: both partners purified
# [4] = molecular target: the molecule itself; assay: cell-based or functional assay
# [5] = molecular target: T2, FtsZ core (residues 1-315); assay: ITC; displacement: pre-formed MinCN:Core complex (45 µM MinCN + 5 µM Core, 9:1) in the cell, Tail titrated to 10 µM final; TKEG buffer, 25°C; conditions: both partners purified
# [6] = molecular target: T3, FtsZ core (residues 1-315) D210A/D213A; assay: ITC; full-length FtsZ or FtsZ core (5 µM) in the cell, FtsZ tail or MinCN (50 µM) in the syringe; TKEG buffer (50 mM Tris pH 8, 50 mM KCl, 1 mM EDTA, 5% glycerol), 25°C; one-site model; conditions: both partners purified
# [7] = molecular target: T1, FtsZ core (residues 1-315), wild type; assay: ITC; competition: FtsZ tail titrated into a pre-formed MinCN:Core complex (45 µM MinCN + 5 µM Core, 9:1, ~99% occupancy); TKEG buffer, 25°C; conditions: both partners purified
# [8] = molecular target: T4, FtsZ core (residues 1-315) …; assay: ITC; 5 µM full-length FtsZ or FtsZ core in the cell, 50 µM FtsZ tail or MinCN in the syringe; TKEG buffer (50 mM Tris pH 8, 50 mM KCl, 1 mM EDTA, 5% glycerol), 25°C; 20 injections of 2 µL; each replicate fitted; conditions: both partners purified
# [9] = molecular target: T5, FtsZ core (residues 1-315) D210A/D213A; assay: as above; conditions: both partners purified
binder,measurement,setting,value
B1,Kd,[1],418 nM and 447 nM and 621 nM
same,stoichiometry N,[1],1.11 and 0.829 and 1.07
same,Kd,[2],495 nM and 405 nM
same,stoichiometry N,[2],1 ± 0.15
same,Kd,[3],> 2000 nM
B2,critical concentration for polymerization (x-intercept of malachite green GTPase rate against FtsZ concentration),[4],0.51 µM
same,specific GTPase activity above the critical concentration (malachite green assay),[4],4 GTP/min/FtsZ
B3,critical concentration for polymerization (x-intercept of malachite green GTPase rate against FtsZ concentration),[4],0.37 µM
same,specific GTPase activity above the critical concentration (malachite green assay),[4],5.1 GTP/min/FtsZ
B4,critical concentration for polymerization (x-intercept of malachite green GTPase rate against FtsZ concentration),[4],0.41 µM
same,specific GTPase activity above the critical concentration (malachite green assay),[4],4.7 GTP/min/FtsZ
B5,stoichiometry N,[5],1
same,Kd,[6],501 ± 64 nM
same,Kd,[2],228 ± 24 nM
same,Kd,[3],> 2000 nM
B6,stoichiometry N,[7],1.03 and 0.948 and 0.919 and 0.965
same,Kd,[1]; both partners purified,260 nM and 222 nM and 229 nM and 202 nM
same,stoichiometry N,[1]; both partners purified,1.09 and 1.05 and 1.03 and 1.01
same,binding result,[8],binds
same,Kd,[9],428 nM and 529 nM and 545 nM
same,stoichiometry N,[9],1.18 and 1.24 and 1.1 and 1.17
B7,Kd,[2],> 2000 nM
B8,Kd,[2],> 2000 nM
B9,Kd,[2],> 2000 nM
B10,Kd,[2],> 2000 nM
